Data set [1] deals with T1, Dynein light chain LC8 (DYNLL2), 6xHis-tagged (UniProt Q96FJ2 1-89).
T1 construct: Dynein light chain LC8 (DYNLL2), an 89-residue protein; pEV vector with N-terminal 6xHis-tag; The calculated dimer mass of 20.7 kDa fits the untagged protein, so the His tag may have been removed; source: E. coli BL21 (DE3) Rosetta, purified (Ni IMAC, anion exchange on HiTrap Q-HP, SEC on Superdex 75)
The data set is described as follows: fluorescence polarisation; competitive: 50 nM FITC-BMF peptide with LC8 at 80% saturation (12 μM), titrated with LCA5 peptide from 500 μM in two-fold dilutions; 25 °C, PBS, 2 mM TCEP, 0.05% Brij; triplicates. Particulars: both partners purified. In general terms: Polarisation of emitted light reports the rotation of a fluorescent probe.

Data set [2] has as its target T1, Dynein light chain LC8 (DYNLL2), …. The data set is described as follows: ITC; MBP-fused LCA5 construct in the cell, LC8 injected, 37 injections of 1 μl; 37 °C, PBS pH 7.4, 1 mM TCEP. Particulars: both partners purified. A general note: Isothermal titration calorimetry measures the heat released or taken up as one component is titrated into another.
Data set [3] concerns the molecule itself. The data set is described as follows: SEC; Superose 6 Increase 10/300, DPBS with 200 μM TCEP; LC8 or sLCA5-WT alone; masses estimated from a calibration curve.

Where a chain is given by its changes, count along the chain named. Where no end group is shown, it is not given here. The star is where a group is joined. FITC = O=C1OC2(c3ccc(O)cc3Oc3cc(O)ccc32)c2ccc(NC(=S)*)cc21

T1 sequence (Q96FJ2 whole entry, looked up): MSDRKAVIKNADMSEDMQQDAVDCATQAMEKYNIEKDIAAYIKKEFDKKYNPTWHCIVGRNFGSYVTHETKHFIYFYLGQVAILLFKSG

B1: FITC-labelled BMF (Bcl-2-modifying factor) peptide (TSQEDKATQTL) (peptide)
peptide: {FITC}-TSQEDKATQTL
notes: also called BMF peptide; fluorescein labeled BMF peptide
For B1, the binding result in data set [1] was “binds”.

B2: sLCA5-ΔVQT (domain or fragment, human (cDNA library from HEK293), UniProt Q86VQ0 96-430, looked up)
chain: DTDLVTKRILSARLLKINELQNEVSELQVKLAELLKENKSLKRLQYRQEKALNKFEDAENEISQLIFRHNNEITALKERLRKSQEKERATEKRVKDTESELFRTKFSLQKLKEISEARHLPERDDLAKKLVSAELKLDDTERRIKELSKNLELSTNSFQRQLLAERKRAYEAHDENKVLQKEVQRLYHKLKEKERELDIKNIYSNRLPKSSPNKEKELALRKNAACQSDFADLCTKGAAAMEDFKPEEYPLTPETIMCYENKWEEPGHLTLDLQSQKQDRHGEAGILNPIMEREEKFVTDEELHVVKQEVEKLEDEWEREELDKKQKEKASLLER
notes: position 333 worked out from the printed motif limits; Made by quick-change mutagenesis from sLCA5-WT; also called ΔVQT mutant; source: E. coli BL21 (DE3) Rosetta, purified (amylose resin, IMAC); clarified lysate for the pull-down; not shown: MBP, N-terminal, kept; His6, C-terminal, kept
Usually Kd stands for the concentration at which binding is half-saturated. High values mean lower affinity, low ones higher affinity. Turning to B2, in data set [2], the affinity, expressed as Kd, was 1220 ± 80 nM.

B3: sLCA5-ΔCQS (domain or fragment, human (cDNA library from HEK293), UniProt Q86VQ0 96-430, looked up)
chain: B2 chain with C226A, Q227A, S228A, A238V, A239Q, A240T
notes: position 321 worked out from the printed motif limits; Made by quick-change mutagenesis from sLCA5-WT; also called ΔCQS mutant; source: E. coli BL21 (DE3) Rosetta, purified (amylose resin, IMAC); clarified lysate for the pull-down; not shown: MBP, N-terminal, kept; His6, C-terminal, kept
As for B3, binding in data set [2] was put at a Kd of 680 ± 80 nM.

B4: sLCA5-WT (LCA5 96-430 with N-terminal MBP and C-terminal 6xHis) (domain or fragment, human (cDNA library from HEK293), UniProt Q86VQ0 96-430, looked up)
chain: B2 chain with A238V, A239Q, A240T
notes: Monomer of the construct 84 kDa; also called wild-type LCA5 fragment; source: E. coli BL21 (DE3) Rosetta, purified (amylose resin, IMAC); clarified lysate for the pull-down; not shown: MBP, N-terminal, kept; His6, C-terminal, kept
The term stoichiometry N denotes the number of molecules, sites or subunits per partner or assembly. Turning to B4, binding in data set [2] was characterised by a dissociation constant (Kd) of 760 ± 60 nM. The “stoichiometry N” value in data set [3] is around 4.

Values taken from PMC9481538, “The interaction between LC8 and LCA5 reveals a novel oligomerization function of LC8 in the ciliary-centrosome system” (Scientific Reports, 2022).
